# Ends that are not written are not given here. E3 = triethyleneglycol (PEG3) linker; Cy5.5 = cyanine 5.5 fluorophore
# B1: KSP*-Cy5.5 (peptide)
# peptide: KSPNPRFGGGSK(Cy5.5)-NH2
# notes: also called KSP*-GGGSK-Cy5.5; ErbB2 monomer peptide
# B2: QRH*-KSP*-E3-Cy5.5 (peptide)
# peptide 1: QRHKPRE-E3
# peptide 2: KSPNPRF-E3
# modifications: not fully specified (bridges); also: heterodimer: both C-termini joined via E3 to alpha and epsilon amines of a Lys, followed by Lys carrying Cy5.5
# B3: QRH*-Cy5.5 (peptide)
# peptide: QRHKPREGGGSK(Cy5.5)-NH2
# notes: also called QRH*-GGGSK-Cy5.5; EGFR monomer peptide
# Key:
# [1] = molecular target: T1, epidermal receptor growth factor 2 (ErbB2) (human, UniProt P04626 23-1255); assay: confocal microscopy of FITC-labeled peptides on Flo1-HER2 cells
# T1 construct: whole, on cells; Receptor on human cancer cell lines or xenograft tumour cells; also called HER2; HER2/neu
# Protocol: A FITC label was attached to each peptide, and binding to Flo1-HER2 and QhTERT cells (control) was imaged using confocal microscopy. […] KSPNPRF (SEQ ID NO: 2) was selected based on the highest mean fluorescence intensity with binding to Flo1-HER2. From the model, this peptide was determined to bind to HER2 domain 3. The peptide was then labeled for deep tissue imaging with a Cy5.5 fluorophore via a GGGSK (SEQ ID NO: 3) linker on the C-terminus, hereafter KSP*-Cy5.5. Cy5.5 was chosen for high quantum yield and photostability. The linker prevents steric hindrance by spatially separating the fluorophore from the peptide. A scrambled sequence PPSNFKR (SEQ ID NO: 4) was developed for use as control by altering the conformationally rigid spacer PNP and moving both hydrophobic and hydrophilic amino acids at the C-terminus. This control peptide also was linked to Cy5.5 via GGGSK (SEQ ID NO: 3), hereafter PPS*-Cy5.5. […] The fluorescence emission peak occurs at 708 nm in the NIR spectrum.
# [2] = molecular target: T1, epidermal receptor growth factor 2 …; assay: flow cytometry on OE33 cells (carry EGFR and ErbB2), apparent dissociation constant
# [3] = molecular target: EGFR and ErbB2 together on the surface of cells that express both (OE33, SKBr3) (human) (UniProt P00533); assay: flow cytometry on OE33 cells, apparent dissociation constant
# [4] = molecular target: EGFR and ErbB2 together on the surface of cells that express both (OE33, SKBr3) (human) (UniProt P00533); assay: flow cytometry on OE33 cells, against QRH*-Cy5.5 and KSP*-Cy5.5
# [5] = molecular target: EGFR and ErbB2 together on the surface of cells that express both (OE33, SKBr3) (human) (UniProt P00533); assay: confocal microscopy on OE33 cells, against QRH*-Cy5.5 and KSP*-Cy5.5
# [6] = molecular target: EGFR and ErbB2 together on the surface of cells that express both (OE33, SKBr3) (human) (UniProt P00533); assay: flow cytometry time course on OE33 cells, 1 µM peptide, first-order fit
# [7] = molecular target: T2, epidermal growth factor receptor (EGFR) (human, UniProt P00533 25-1210); assay: flow cytometry on OE33 cells (carry EGFR and ErbB2), apparent dissociation constant
# T2 construct: whole, on cells; Endogenous receptor on human cancer cell lines or xenograft tumour cells; also called ErbB-1; HER1
binder,measurement,setting,value
"KSPNPRF (also: FITC label, attachment not given here) [KSPNPRF with a FITC label]",binding result,[1],binds
B1,Kd,[2],54 nM
B2,Kd,[3],23 nM
same,fold improved binding affinity compared with either monomer alone,[4],2 fold
same,fold greater fluorescence intensity compared with either monomer alone,[5],3 fold
same,apparent association time constant Ka,[6],0.22 min⁻¹
same,association time (printed in brackets after Ka),[6],4.5 min
B3,Kd,[7],98 nM
